What was measured:
HL60 cells = assay: colony-forming ability (CFA) assay, As2O3; assay type: cell-based
Method: Analysis for colony forming ability (CFA): U937 cells (ATCC), in the logarithmic phase, were maintained in RPMI 1640 medium supplemented with 20% FBS and 0.4% methyl cellulose (Sigma) by the semi-solid colony culture method and were adjusted to a density of 5×10^3 cells/mL. The cells were divided into control groups and test groups, and each group was assayed in triple wells. U937 cells in the control groups were treated with DNR alone, with the final concentrations of 0 ng/mL and 0.5 ng/mL. U937 cells in the test group were treated with DNR of various concentrations combined with PDCD5 of various concentrations, while the final concentrations of PDCD5 were 0 μg/mL, 0.625 μg/mL, 1.25 μg/mL, and 2.5 μg/mL, respectively. After incubation for 14 days in a 37° C., 5% CO2 and saturatedly humidified incubator, a colony with more than 30 cells was counted by an inverted microscope in order to analyze colony forming ability of each group. The colony forming ability was shown as the ratio of average number of colony in each group versus that of the untreated control group in which the final concentrations of DNR and PDCD5 were 0 μg/mL.
Colony-forming ability (CFA) assay: HL60 cells of logarithmic growth phase were cultured by a method identical to that in Example 8. The cells were divided into control and test groups (each with 3 wells): In the control groups, the HL60 cells were treated only with arsenic trioxide and the final concentration of which were 0 μg/mL and 0.25 μg/mL, respectively; in the test groups, the HL60 cells were treated with different concentrations of As2O3, which was combined with different concentrations of PDCD5, the final concentrations of PDCD5 were 0 μg/mL, 5 μg/mL, 10 μg/mL and 20 μg/mL, respectively. Cultures were incubated in a 37° C., 5% CO2 and saturatedly humidified incubator for 14 days. The numbers of colonies (containing≧30 cells) were counted on day 14 by inverted microscope. The colony-forming ability was observed as the ratio of the number of average colony formation in the test groups versus that in the untreated control group. […]

K562 cells [1] = assay: FITC/Annexin-V apoptosis by flow cytometry, IDR; assay type: cell-based
Method: Methods: Cell staining with FITC/Annexin-V and cell apoptosis in vitro detection by flow cytometry: K562 cells (ATCC) were maintained in RPMI 1640 (Life Technologies, USA) supplemented with 10% FBS (Hyclone, USA), and were plated in 24-well culture dishes to a density of 2×10^5 cells/mL. rhPDCD5 protein was added with a final concentration of 7.5 μg/mL, 15 μg/mL and 30 μg/mL, respectively, in each well. Chemotherapeutic drug IDR was then added with a final concentration of 56 ng/mL and RPMI 1640 with 10% FBS was added to make the system to 1 mL. After 24 hours of co-culture, the cells were stained with FITC/Annexin-V (Baosai company) and apoptosis was detected by flow cytometry.

K562 cells [2] = assay: Annexin-V apoptosis by flow cytometry, Ara-C; assay type: cell-based
Method: Methods: Cell staining with FITC/Annexin-V and cell apoptosis detection in vitro by flow cytometry: K562 cells (ATCC) were maintained in RPMI 1640 (Life Technologies, USA) supplemented with 10% FBS (Hyclone, USA), and were plated in 24-well culture dishes to a density of 2×10^5 cells per well. rhPDCD5 protein was added in each well with a final concentration of 15 μg/mL, 30 μg/mL and 60 μg/mL, respectively. Chemotherapeutic drug Ara-C (Pharmacia, Italia) was then added with a final concentration of 0.1 μg/mL and RPMI 1640 medium supplemented with 10% FBS was added to bring the culture system to 1 mL. After incubation for 48 hours, the cells were stained with Annexin-V/PI (Biosea) and then were analyzed for apoptosis by flow cytometry.

[3] = tested on: SiHa cervical cancer cells; settings: Zhang et al. 2004; cited from earlier work
U937 xenografts = assay: U937 nude mice xenograft model, DNR; assay type: in vivo, BALB/c nude mice; settings: fifteenth day; rhPDCD5 40 μg into the tumor, DNR 40 μg intraperitoneal, once a day for 8 days
Method: Methods: U937 nude mice xenograft model: BALB/c nude mice (5-6 weeks of age) were pretreated with cyclophosphamide (100 mg/kg, injected intraperitoneally once a day for two consecutive days). On day 3, 1×10^7 (100 μl) of U937 cells were subcutaneously (s.c.) injected into a single flank of each of the mice. The treatments began on day 7 after inoculation when the average tumor diameter reached about 5 mm. The mice were divided randomly into four groups (n=6, i.e., six mice in each group) and treated with normal saline (NS), rhPDCD5 (40 μg, locally injected into the tumor), DNR (40 μg, intraperitoneal) or DNR (40 μg) plus rhPDCD5 (40 μg), once a day for 8 consecutive days.
Tumor volume (V) was determined every other day by vernier caliper measurements and calculated based on the equation of V=ab^2/2, where “a” refers to a long tumor diameter and “b” refers to a short diameter, then tumor volume growth curve was drawn. The percentage of reductions in tumor growth was calculated using the formula: [1-(Tf-Ti)/(Cf-Ci)]×100, where Tf and Ti are the final and initial mean tumor volumes, respectively, of the group receiving a specific treatment, and Cf and Ci are the final and initial mean tumor volumes, respectively, of the NS control group. After the treatment, tumors were collected and weighed and tissues were sectioned and processed by histological hematoxylin and eosin (H&E) staining. Results were statistically analyzed using SPSS 13.0. The measurements were expressed as the mean±standard deviation. Data were analyzed by the single-factor ANOVA and Student's t test and are presented as mean±standard deviation (SD). P<0.05 was considered statistically significant.

[4] = tested on: HeLa, MGC-803, HT-29, A549, PC-3, U937, HL-60, Jurkat T lymphocytes, K562, Raji, TF-1 cells; assay: entry of exogenous PDCD5 into cell types; assay type: cell-based
Raji cells = assay: FITC/Annexin-V apoptosis by flow cytometry, DNR; assay type: cell-based
Method: Methods: Raji cells were cultured in RPMI 1640 medium (Life Technologies, USA) supplemented with 10% Fetal Bovine Serum (FBS, Hyclone, USA). The cells were seeded in 24-well plates with 2×10^5 cells per well. rhPDCD5 was added to each well and the final concentrations were 0 μg/mL, 2.5 μg/mL and 5 μg/mL, respectively. Subsequently, DNR was added and the final concentrations were 0 μg/mL and 0.05 μg/mL, and RPMI 1640 medium supplemented with 10% FBS was added to ensure the system was brought to 1 mL. After 24 h incubation, the cells were stained with FITC/Annexin-V (Beijing Biosea Biotechnology Co., Ltd.) and the apoptosis was detected by flow cytometry.

B1: rhPDCD5: recombinant human programmed cell death 5 protein (SEQ ID NO:1) expressed in E. coli and purified (protein, listed as Homo sapiens)
chain: MADEELEALRRQRLAELQAKHGDPGDAAQQEAKHREAEMRNSILAQVLDQSARARLSNLALVKPEKTKAVENYLIQMARYGQLSEKVSEQGLIEILKKVSQQTEKTTTVKFNRRKVMDSDEDDDY
- enhancement of CFA inhibition by As2O3 (HL60 cells): can significantly enhance the CFA inhibition by As2O3
- effect on the CFA of HL60 (HL60 cells; rhPDCD5 alone): no significant affect
- promotion of apoptosis induced by IDR (K562 cells [1]): could significantly promote apoptosis
- promotion of apoptosis induced by Ara-C (K562 cells [2]): could significantly promote apoptosis
- effect on apoptosis induced by IFNγ in vitro [3]: had a sensitized effect on apoptosis of SiHa cervical cancer cells
- Average size of tumors (mean ± SD) (U937 xenografts): 571.96 ± 237.91 mm^3
- specificity for cell types while entering into cells [4]: shows no specificity for cell types
- enhancement of DNR-induced apoptosis (Raji cells): can significantly enhance DNR-induced apoptosis
